From the supplement of paper PMC9170038 come the findings set out here.

This data set relates to MS2 coat protein. Put plainly: apparent KD of MS2 coat protein; designed switch direction (-1 OFF switch, 1 ON switch): -1; higher = weaker reporter binding. The gist of the method: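 Designed RNA switches were transcribed on Illumina chips by stalled E. coli RNA polymerase and titrated with SNAP-549-labelled MS2 coat protein from 0.7 or 1.5 nM, doubling to 3 µM. Step length ran from 0.8–1.5 h at the lowest concentration to 10–20 min at the highest. The apparent KD is the median over clusters for each design, from curve-fitted normalised cluster fluorescence.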

[1] abbreviates: input ligand: microRNA oligo, concentration not stated.
[2] abbreviates: Eterna round: R95, input ligand: microRNA oligo, concentration not stated.
Setting [3] is: Eterna round: R95, input ligand: FMN 200 uM.
[4] abbreviates: Eterna round: R95, input ligand: none.

Regarding “CCGGGCCCGGGAGGAUAUACAUGAGGAUCACCCAUGUGGGCCCGGGCCCGCGGGCCCGGGCCCGUGUAGAAGGCCCGGGCCCGG [-64.8, -63.2 kcal, A 14%] (Eterna round: R96, puzzle: Exclusion NG 2)”, the “apparent KD of MS2 coat protein” value runs as follows: (input ligand: FMN 200 uM) 27.2 nM; under setting [1], 5.13 nM; (input ligand: none) 19.9 nM.

For “CCGGUGUGAGGAUAUCGUGGCUUGCAGGAAACGCUAAGUCGCGAGAAGGCACAUGAGGAUCACCCAUGUGUAUC [Eternabot (L2) Solution 54] (Eterna round: R97, puzzle: Exclusion 4)”, the “apparent KD of MS2 coat protein” value runs as follows: (input ligand: FMN 200 uM) 62.8 nM; (input ligand: none) 24.7 nM.

As to “CCGUCGGUAGGAUAUGCUAUGCAUGUCGGCGCUAUUUGAGGACAUGAGGAUCACCCAUGUAGAAGGGCCGAGGU [Eternabot (L1) Solution 55] (Eterna round: R97, puzzle: Exclusion 2)”, the “apparent KD of MS2 coat protein” value was found to be 22.7 nM (input ligand: FMN 200 uM) and 15.7 nM (input ligand: none).

Take “CCGUUGCUAGGAUAUACAUGAGGAUCACCCAUGUUUGAUCCAGCGAGUCAAUCCGCUUGUAGAAGGAGUUACAC [EX3 C.9] (Eterna round: R97, puzzle: Exclusion 3)”: the “apparent KD of MS2 coat protein” value reads like this: (input ligand: FMN 200 uM) 25.3 nM; (input ligand: none) 26.4 nM.

“CCUAUGUGAGGAUAUCACUGGUCUUCUCACUGGAUGACCAGUGAGAAGGCACAUGAGGAUCACCCAUGUCGGUG [Ex4 - 3 - 50] (puzzle: Exclusion 4)”: under setting [2], the “apparent KD of MS2 coat protein” value came to 312 nM.

For the sequence “CCUCAGUAAGGAUAUCAGCUUAAGGAGGUGGUAAAGAGAGCUGAGAAGGUACAUGAGGAUCACCCAUGUUAAAA [Zatite] (Eterna round: R96, puzzle: Exclusion 4)”, the “apparent KD of MS2 coat protein” value is, setting by setting: (input ligand: FMN 200 uM) 193 nM; under setting [1], 47.1 nM; (input ligand: none) 57.2 nM.

As for “CCUCAGUAAGGAUAUCAGCUUAAGGAGGUGGUAAAGAGAGCUGAGAAGGUACAUGAGGAUCACCCAUGUUAAAA [Zatite] (puzzle: Exclusion 4)”, the “apparent KD of MS2 coat protein” value under setting [3] was found to be 64.4 nM, the “apparent KD of MS2 coat protein” value under setting [2] turned out to be 44.9 nM and the “apparent KD of MS2 coat protein” value under setting [4] was 50.2 nM.

On to “CCUCAGUCACAGGAUAUGCUCAUCUAAUGAUGAGCAGAAGGGUGAACAUGAGGAUCACCCAUGUUUACCAGGGU [Omei Ex6 E5] (Eterna round: R97, puzzle: Exclusion 6)”, for which the “apparent KD of MS2 coat protein” value (input ligand: FMN 200 uM) was 36 nM and the “apparent KD of MS2 coat protein” value (input ligand: none) is 161 nM.

Consider “CCUCAGUGAGGAUAUGCUGCCGCCGUGAAUACACACCGCGCGUAGAAGGCACAUGAGGAUCACCCAUGUGAAGG [Eternabot (Original) Solution 9] (Eterna round: R97, puzzle: Exclusion 4)”, for which the “apparent KD of MS2 coat protein” value was 354 nM (input ligand: FMN 200 uM) and 97.7 nM (input ligand: none).

Regarding “CCUCAUAGUCAGGAUAUCAGCGCGUUCGGCAAAUGAGAAGGGACCACAUGAGGAUCACCCAUGUAAAACCAAAA [Beencema] (Eterna round: R97, puzzle: Exclusion 6)”, the “apparent KD of MS2 coat protein” value by setting is: (input ligand: FMN 200 uM) 44.1 nM; (input ligand: none) 36 nM.

Take “CCUCAUAUUUAGGAUAUGAUUGGUAAUUAUUAGUUAGAAGGAGAUACAUGAGGAUCACCCAUGUAAUAUUUAAA [-11.7, -11.3 kcal, 36% A] (Eterna round: R97, puzzle: Exclusion 6)”: the “apparent KD of MS2 coat protein” value is, setting by setting: (input ligand: FMN 200 uM) 20.3 nM; (input ligand: none) 19.5 nM.

For the sequence “CCUCCACAUGAGGAUCACCCAUGUCAGGAUAUCGCGCGCGCGUUUUCGGUCUUUCGCGCGAGAAGGGACGACUG (puzzle: Exclusion 1)”, the “apparent KD of MS2 coat protein” value under setting [2] stood at 29 nM.

With “CCUCCACAUGAGGAUCACCCAUGUCAGGAUAUCGUGUGUGCUUUUUCGGUCUUUCGUGCGAGAAGGGACGUCUG (puzzle: Exclusion 1)”, under setting [2], the “apparent KD of MS2 coat protein” value was determined as 25.5 nM.

Regarding “CCUCCGGUAUAGGAUAUUUAUGAGCUCAGUUCUAAAGAAGGGUAUACAUGAGGAUCACCCAUGUGUGAAGUUAU [Eternabot (L2) Solution 20] (Eterna round: R97, puzzle: Exclusion 6)”, the “apparent KD of MS2 coat protein” value is, setting by setting: (input ligand: FMN 200 uM) 52.5 nM; (input ligand: none) 49.9 nM.

Consider “CCUCGACAUGAGGAUCACCCAUGUCAGGAUAUUGUGUCUCGGGUUUUUUACCGUUAGGCAAGAAGGGAUGUGUG [LRO-Excl1-14] (puzzle: Exclusion 1)”, for which the “apparent KD of MS2 coat protein” value under setting [2] came out at 19.7 nM.

With “CCUCGACGGUAGGAUAUCGUCAAACUAUUGUGAUGAGAAGGACUGACAUGAGGAUCACCCAUGUUAACGUGAUG [Exclusion 6 - 7:a] (puzzle: Exclusion 6)”, the “apparent KD of MS2 coat protein” value under setting [2] was found to be 14.8 nM.

Turning to “CCUCGCCCUCUUGCACAUGAGGAUCACCCAUGUUUUACGUACUAGGAUAUAGCUAUGUUCAAUCGUUAGAAGGAGUUCAUGGAU [Eternabot solution 37] (Eterna round: R96, puzzle: Exclusion NG 3)”, the “apparent KD of MS2 coat protein” value under setting [1] is 77.4 nM.

As for “CCUCUACAUGAGGAUCACCCAUGUGAGGAUAUCUCGGAGCAGCCUAUUAAGGCGCUCCAGAGAAGGCACGUGUA [Dizasoorce] (puzzle: Exclusion 1)”, the “apparent KD of MS2 coat protein” value under setting [2] was determined as 17.9 nM.

As for “CCUGGGUAAGGAUAUUUGAUUCCCUCCGGUUAGGGAGGAUGGAAGAAGGUACAUGAGGAUCACCCAUGUGUGGA [Eternabot (L1) Solution 67] (Eterna round: R97, puzzle: Exclusion 4)”, the “apparent KD of MS2 coat protein” value (input ligand: FMN 200 uM) came to 94.7 nM and the “apparent KD of MS2 coat protein” value (input ligand: none) came to 97.8 nM.

For the sequence “CCUUAGUCAGGAUAUUGAGGUAAAAGAAAAGAAAACGACAGCAAGAAGGGACAUGAGGAUCACCCAUGUAUAAA [Bequxeain] (puzzle: Exclusion 4)”, the “apparent KD of MS2 coat protein” value runs as follows: under setting [3], 24.4 nM; under setting [2], 30.1 nM; under setting [4], 16.2 nM.

With “CGAUAAAAGACAGGAUAUGAGGAGAGAGAGAGAUCAGAAGGGUCACAUGAGGAUCACCCAUGUGAGUUCUCGAAAGGAAAGAGG [Prohibition 51 - Jieux - Exclusion NG 1] (Eterna round: R96, puzzle: Exclusion NG 1)”, the “apparent KD of MS2 coat protein” value is, setting by setting: (input ligand: FMN 200 uM) 21.4 nM; under setting [1], 15 nM; (input ligand: none) 23 nM.

Turning to “CGAUCACAUGAGGAUCACCCAUGUCAGGAUAUCGUCCAUAGGAAACAACCCUUCGAGGCGAGAAGGGACAAUCG [Eternabot (Original) Solution 29] (Eterna round: R97, puzzle: Exclusion 1)”, the “apparent KD of MS2 coat protein” value came to 46.9 nM (input ligand: FMN 200 uM) and 31.1 nM (input ligand: none).

As to “CGAUGUAACACAGGAUAUCAUCGCAACUGACGUUGAGAAGGGUGACAUGAGGAUCACCCAUGUGAUUUCUCAAUAUUAUACAUC [Prohibition 82 - Jieux - Exclusion NG 1] (Eterna round: R96, puzzle: Exclusion NG 1)”, the “apparent KD of MS2 coat protein” value turned out to be 715 nM (input ligand: FMN 200 uM), 830 nM under setting [1] and 1390 nM (input ligand: none).

As to “CGCAUGUGAGGAUAUUAGUAGUAGUCAGAAUAGACUAUUACUGAGAAGGUACAUGAGGAUCACCCAUGUAUGCG [Eli x4 4.22] (Eterna round: R97, puzzle: Exclusion 4)”, the “apparent KD of MS2 coat protein” value (input ligand: FMN 200 uM) is 38.9 nM and the “apparent KD of MS2 coat protein” value (input ligand: none) stood at 21.5 nM.

“CGCCCUGACGAAGGAUAUUAAGCUCAUACAUGAGGAUCACCCAUGUCCAUAGUAGUGUAUGCACCUGAGAAGGUCGUCAGCGCU [Eternabot solution 50] (Eterna round: R96, puzzle: Exclusion NG 2)”: the “apparent KD of MS2 coat protein” value runs as follows: (input ligand: FMN 200 uM) 213 nM; under setting [1], 240 nM; (input ligand: none) 257 nM.
